From publication PMC6624275 come the findings set out here.

This assay deals with Hen egg-white lysozyme (Hewl) (hen) (UniProt P00698).
Hen egg-white lysozyme (Hewl) (hen), sequence (P00698 19-147): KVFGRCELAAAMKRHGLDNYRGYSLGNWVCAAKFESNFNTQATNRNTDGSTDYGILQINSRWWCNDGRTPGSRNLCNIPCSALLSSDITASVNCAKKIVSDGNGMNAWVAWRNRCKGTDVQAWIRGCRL

On to “recombinant Dichelobacter nodosus Adhesin Complex Protein (rDn-ACP) (from UniProt A5EV15 1-230) (natural protein)”, for which the reduction of Hewl (10 U/well)-mediated lysis of M. lysodeikticus cells (OD at 595 nm, 25 °C), rDn-ACP 3-90 pmol/well, read at 2 h and 24 h turned out to be 100%.

In the case of “recombinant Neisseria meningitidis Adhesin Complex Protein (rNm-ACP) (natural protein)”, the reduction of Hewl (10 U/well)-mediated lysis of M. lysodeikticus cells (OD at 595 nm, 25 °C), rNm-ACP 6-180 pmol/well, read at 2 h and 24 h is 80%.
